This note sets out measurements from publication PMC4927284.

The target in this assay is mutant (M97S, F110S) EndoBAR (endophilin Bin–Amphiphysin–Rvs domain of mouse endophilinA1) (mouse). The experiment in a line: cross-linking.

Usually stoichiometry N stands for a count of units in the complex or per binding partner. For the substance “mutant (M97S, F110S) EndoBAR (endophilin Bin–Amphiphysin–Rvs domain of mouse endophilinA1) (domain or fragment)”, the stoichiometry N is 2.
